“And” between values parts separate entries of the source, which are not always exact repeats. Equal values may be shown once.

Results on five molecules are retold here after patent US10813788B2, “Implantable therapeutic device” (ForSight Vision4, Inc., priority 2009, dated 2020).

The conditions of series [1]: amino acid side chain; cited from earlier work.
A short description of series [2]: Solubility of triamcinolone acetonide. Conditions: suspension, in the buffer at 37° C. when implanted.
A short description of series [3]: RRI for Avastin of porous frits characterised by gas flow, Example 17C (Table 7). Type of series: physicochemical. The text has this: The flow through the porous structure can be measured with a decay time of the gas pressure, for example with the flow rate across the porous structure with a pressure drop across the porous frit structure, as described herein. The flow rate and RRI can be determined based on the media grade of the material, for example as commercially available media grade material available from Mott Corp. The therapeutic agent can be measured through the porous structure, or a similar test molecule. […] Based on the teachings described herein, a person of ordinary skill in the art can conduct experiments to determine empirically the correspondence of flow rate with a gas to the release rate of the therapeutic agent.

Series [4] can be described thus: Osmolarity of saline and commercial formulations (Table 1B, calculations). The series is classed as physicochemical. Conditions: Summary of Calculations. The source says: The formulation of therapeutic agent injected into therapeutic device 100 may comprise many known formulations of therapeutic agents, and the formulation therapeutic agent comprises an osmolarity suitable for release for an extended time from device 100.
The vitreous humor of the eye comprises an osmolarity of about 290 mOsm to about 320 mOsm. Formulations of therapeutic agent having an osmolarity from about 280 mOsm to about 340 mOsm are substantially isotonic and substantially iso-osmotic with respect to the vitreous humor of the eye. Although the formulations listed in Table 1B are substantially iso-osmotic and isotonic with respect to the vitreous of the eye and suitable for injection into the therapeutic device, the formulation of the therapeutic agent injected into the therapeutic device can be hypertonic (hyper-osmotic) or hypotonic (hypo-osmotic) with respect to the tonicity and osmolarity of the vitreous. […]

The nature of series [5]: Measured release of Avastin through porous frit structures, Examples 12-13. Conditions: for RRI (mm): single devices; for determined RRI: reservoir 20 uL. The series is classed as physicochemical. The text has this:
For the analysis of data up to 130 days, the first data point is excluded from the fit because the model assumes the maximum delivery rate occurs at time zero while there is some startup time often associated with measured release profiles. The startup time may be related to the time it takes to displace all of the air in the frit. Use of different techniques to displace the air in the frit may reduce the startup time.

Experiment in series [6]: as above
Type of series: physicochemical.

The mark [7] stands for this setting: Frit #3 (0.038 x 0.029 in), reservoir 37 uL, up to 130 days.

Consider `N=C(N)NCCC[C@H](N)C(=O)O` [L-Arginine], for which the “pKa of side chain” value in series [1] is given as 12.0.
With `N[C@@H](CC(=O)O)C(=O)O` [L-Aspartic Acid], the “pKa of side chain” value in series [1] is 3.8.
For the molecule `N[C@@H](CS)C(=O)O` [L-Cysteine], the “pKa of side chain” value in series [1] is given as 8.28.
For the molecule `CC1(C)O[C@@H]2C[C@H]3[C@@H]4CCC5=CC(=O)C=C[C@]5(C)[C@@]4(F)[C@@H](O)C[C@]3(C)[C@]2(C(=O)CO)O1` [triamcinolone acetonide], the solubility result in series [2] is recorded as “approximately 19 ug/mL”.
Turning to bevacizumab [Avastin], the RRI in series [3] (Table 7: media grade 0.1, O.D. 0.038 in, length 0.029 in) is 0.014; in series [3] (Table 7: media grade 0.2, O.D. 0.031 in, length 0.049 in) it was 0.019; in series [3] (Table 7: media grade 0.2, O.D. 0.038 in, length 0.029 in), 0.034 and 0.033; in series [6] (Frit #6, reservoir 20 uL, to about 90 days, FIG. 23A-1), 0.053 mm. Besides, the “Osm” value in series [4] is reported as 0.182 M. In addition, the “RRI (mm), Mean” value is 0.024 mm in series [5] (Frit #2 (0.031 x 0.049 in), reservoir 37 uL, up to 130 days); 0.02 mm and 0.020 mm in series [6] (Frit #2 (0.031 x 0.049 in), reservoir 37 uL, up to 45 days); 0.034 mm in series [6] (Frit #3 (0.038 x 0.029 in), reservoir 37 uL, up to 45 days); 0.035 mm in series [6] (setting [7]). The “RRI (mm), Mean for SS < 2” value in series [5] (Frit #2, reservoir 37 uL, up to 130 days) worked out at 0.014 mm; in series [5] (Frit #3, reservoir 37 uL, up to 130 days) it was 0.030 mm; in series [6] (Frit #2, reservoir 37 uL, up to 45 days), 0.014 mm; in series [6] (Frit #3, reservoir 37 uL, up to 45 days), 0.030 mm. Further, the “RRI (mm)” value in series [5] (setting [7]) is 0.031 mm and 0.030 mm and 0.029 mm and 0.034 mm and 0.044 mm and 0.045 mm; in series [5] (Table 5A: 16 uL reservoir, 25 mg/mL Avastin, Frit #2 (0.031 x 0.049 in, media grade 0.2 um, 316L SS), 37 C), 0.018 mm and 0.022 mm; in series [5] (Table 5A: 33 uL reservoir, 25 mg/mL Avastin, Frit #2 (0.031 x 0.049 in, media grade 0.2 um, 316L SS), 37 C), 0.015 mm and 0.018 mm; in series [6] (Frit #3 (0.038 x 0.029 in, media grade 0.2 um), 25 mg/mL Avastin, reservoir 37 uL, 37 C, up to 45 days, single devices) it was 0.027 mm and 0.034 mm and 0.033 mm and 0.044 mm and 0.030 mm and 0.043 mm. Moreover, the “determined RRI” value in series [5] (Frit #5 (0.038 x 0.029 in, media grade 0.1 um), 25 mg/mL Avastin, 37 C, FIG. 24A) worked out at 0.03; in series [5] (Frit #6 (0.038 x 0.029 in, media grade 0.2 um), 25 mg/mL Avastin, 37 C, FIG. 23A), 0.05 mm. For the same molecule, the “release rate (RRI)” value in series [6] (Frit #5, media grade 0.1, reservoir 20 uL, to about 90 days, FIG. 24A-1) is given as 0.038 mm.
